One block for each binder: values may come before it.
Assays:
[1] = target: T1, PD1 on activated human CD4 and CD8 T cells (human, UniProt Q15116 25-288); assay: flow cytometry, CD3/CD28-activated human PBMCs gated on CD3+CD4+ T cells, FITC anti-human Fc secondary antibody; no Matriptase digestion described
T1 construct: whole, on cells; Endogenous PD1 on CD3/CD28-stimulated T cells; also called human PD1; PD1 receptor
Description: (§1) PBMCs were bought from Biomex from a healthy donor (Lot 5000899PB). The PBMCs were stimulated for 3 days with CD3 and CD28 to induce upregulation of PD1 on T cells. Therefore, PBMCs were seeded in medium (RPMI1640, 10% FCS, 2 mM Glutamine) into cell culture flasks that were coated for 1 h at 37° C. with 1 μg/ml CD3 (clone OKT3, 302914, BioLegend). CD28 was added in solution to the PBMCs at a concentration of 1 μg/ml (clone CD28.2, 302914, BioLegend). After three days, PBMCs were harvested and transferred into a 96 well round bottom plate (200′000 cells per well). The cells were washed with FACS buffer (PBS, 2% FBS, 5 mM EDTA, 0.025% NaN3) and stained with 30 μl of corresponding TA PD1-IL2v constructs in FACS buffer for 30 min at 4° C. The cells were washed twice with FACS buffer to remove unbound molecules. Then 30 μl of the diluted FITC anti-mouse Fc specific secondary antibody (1:50 dilution, 115-096-071, Jackson ImmunoResearch) or for the human constructs the diluted FITC anti-human Fc specific secondary antibody (1:50 dilution, 115-096-098, Jackson ImmunoResearch) was added to the cells. After 30 min incubation at 4° C. the cells were washed twice with FACS buffer. To detect T cells, PBMCs were stained with 30 μl of a mixture of CD3 PE/Cyanine7 (clone UCHT1, 300420, BioLegend), CD4 PE (clone RPA-T4, 300508, BioLegend) and CD8 APC (clone SK1, 344722, BioLegend) for 30 min at 4° C. The unbound antibodies were removed by washing twice with FACS buffer. Finally the cells were resuspended in 150 μl FACs buffer and measured using a BD Fortessa gating on CD3+CD4+ cells (CD4 T cells) and CD3+CD8+ cells (CD8 T cells).

[2] = target: T1, PD1 on activated human CD4 and CD8 T …; assay: flow cytometry, CD3/CD28-activated human PBMCs gated on CD3+CD4+ T cells, PE anti-human Fc secondary antibody; TA constructs pre-incubated with Matriptase, unmasked controls not
Description: (§2) Three formats of TA PD1-IL2v molecules and respective controls were assessed for their capacity to bind to activated PD1 positive CD8 T cells and CD4 T cells within PBMCs in comparison to the respective unmasked molecules.
(§3) PBMCs were purchased from Biomex from a healthy donor (Lot 5000729PB). The PBMCs were stimulated for three days with CD3 and CD28 to induce upregulation of PD1 on T cells. Therefore, PBMCs were seeded in medium (RPMI1640, 10% FCS, 2 mM Glutamine) into cell culture flasks that were coated for 1 hour at 37° C. with 1 μg/ml CD3 (clone OKT3, 302914, BioLegend). CD28 was added in solution to the PBMCs at a concentration of 1 μg/ml (clone CD28.2, 302914, BioLegend). After three days, PBMCs were harvested and transferred into a 96 well round bottom plate (200′000 cells per well). The cells were washed with FACS buffer (PBS, 2% FBS, 5 mM EDTA, 0.025% NaN3) and stained with 30 μl of corresponding TA PD1-IL2v constructs in FACS buffer for 30 min at 4° C. Prior to the staining, 20 μg of the TA PD1-IL2v constructs were digested with 4 μl Matriptase (Enzo ˜2.5 U/μl, ALX-201-246-U25, Lot 12152015, or without Matriptase for the unmasked controls) for 2 hours at 37° C. in 40 μl Matriptase buffer (50 mM Tris, 50 mM NaCl, 0.01% Tween 20, pH 9.0). After the staining, the cells were washed twice with FACS buffer to remove unbound molecules. Then 30 μl of the diluted PE anti-human Fc specific secondary antibody (1:50 dilution, 109-116-170, Jackson ImmunoResearch) was added to the cells. After 30 min incubation at 4° C. the cells were washed twice with FACS buffer. To detect T cells, PBMCs were stained with 30 μl of a mixture of CD3 PE/Cyanine7 (clone UCHT1, 300420, BioLegend), CD4 FITC (clone RPA-T4, 300528, BioLegend) and CD8 APC/Cyanine7 (clone HIT8a, 300926, BioLegend) for 30 min at 4° C. The unbound antibodies were removed by washing twice with FACS buffer. Finally the cells resuspended in 150 μl FACS buffer and measured using a BD Fortessa gating on CD3+CD4+ cells (CD4 T cells) and CD3+CD8+ cells (CD8 T cells).

[3] = target: T1, PD1 on activated human CD4 and CD8 T …; assay: flow cytometry, CD3/CD28-activated human PBMCs gated on CD3+CD8+ T cells, PE anti-human Fc secondary antibody; TA constructs pre-incubated with Matriptase, unmasked controls not
Description: as §2, §3

[4] = target: T1, PD1 on activated human CD4 and CD8 T …; assay: flow cytometry, CD3/CD28-activated human PBMCs gated on CD3+CD8+ T cells, FITC anti-human Fc secondary antibody; no Matriptase digestion described
Description: as §1

T1 sequence (Q15116 25-288): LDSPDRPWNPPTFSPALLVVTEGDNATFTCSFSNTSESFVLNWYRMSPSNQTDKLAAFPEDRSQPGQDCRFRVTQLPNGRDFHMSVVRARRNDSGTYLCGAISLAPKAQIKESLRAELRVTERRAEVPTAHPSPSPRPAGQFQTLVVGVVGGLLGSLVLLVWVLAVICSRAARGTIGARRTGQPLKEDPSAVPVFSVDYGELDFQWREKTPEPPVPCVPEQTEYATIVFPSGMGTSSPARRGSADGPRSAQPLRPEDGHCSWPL

EC50 (read off the curve) [1]: ~2 nM
EC50 (read off the curve) [2]: ~0.8 nM
EC50 (read off the curve) [3]: ~1 nM
EC50 (read off the curve) [4]: ~2 nM
B1: human TA PD1-IL2v, MT204, 2xPQARK, in line (antibody, human IgG1, kappa, L234A L235A)
light: DIVMTQSPDSLAVSLGERATINCKASESVDTSDNSFIHWYQQKPGQSPKLLIYRSSTLESGVPDRFSGSGSGTDFTLTISSLQAEDVAVYYCQQNYDVPWTFGQGTKVEIKRTVAAPSVFIFPPSDEQLKSGTASVVCLLNNFYPREAKVQWKVDNALQSGNSQESVTEQDSKDSTYSLSSTLTLSKADYEKHKVYACEVTHQGLSSPVTKSFNRGEC
heavy 1: EVQLLESGGGLVQPGGSLRLSCAASGFSFSSYTMSWVRQAPGKGLEWVATISGGGRDIYYPDSVKGRFTISRDNSKNTLYLQMNSLRAEDTAVYYCVLLTGRVYFALDSWGQGTLVTVSSASTKGPSVFPLAPSSKSTSGGTAALGCLVKDYFPEPVTVSWNSGALTSGVHTFPAVLQSSGLYSLSSVVTVPSSSLGTQTYICNVNHKPSNTKVDKKVEPKSCDKTHTCPPCPAPEAAGGPSVFLFPPKPKDTLMISRTPEVTCVVVDVSHEDPEVKFNWYVDGVEVHNAKTKPREEQYNSTYRVVSVLTVLHQDWLNGKEYKCKVSNKALGAPIEKTISKAKGQPREPQVCTLPPSRDELTKNQVSLSCAVKGFYPSDIAVEWESNGQPENNYKTTPPVLDSDGSFFLVSKLTVDKSRWQQGNVFSCSVMHEALHNHYTQKSLSLSPG
heavy 2: not shown
notes: Bivalent human PD1-targeted human IgG PG LALA with IL2v and MT204 scFv mask 'in-line' on the C-terminus of the Fc knob chain, two PQARK sites; also called P1AG9606; P1AG9606-008

EC50 (read off the curve) [2]: ~1 nM
EC50 (read off the curve) [3]: ~2 nM
B2: TA PD1-IL2v, MT204, non cleavable, N-term (antibody, human IgG1, kappa, L234A L235A)
light chain of the anti-human PD1 Fab (C02011851-A): B1 light
heavy chain, Fc hole, PG LALA (C01483382-H): EVQLLESGGGLVQPGGSLRLSCAASGFSFSSYTMSWVRQAPGKGLEWVATISGGGRDIYYPDSVKGRFTISRDNSKNTLYLQMNSLRAEDTAVYYCVLLTGRVYFALDSWGQGTLVTVSSASTKGPSVFPLAPSSKSTSGGTAALGCLVKDYFPEPVTVSWNSGALTSGVHTFPAVLQSSGLYSLSSVVTVPSSSLGTQTYICNVNHKPSNTKVDKKVEPKSCDKTHTCPPCPAPEAAGGPSVFLFPPKPKDTLMISRTPEVTCVVVDVSHEDPEVKFNWYVDGVEVHNAKTKPREEQYNSTYRVVSVLTVLHQDWLNGKEYKCKVSNKALGAPIEKTISKAKGQPREPQVCTLPPSRDELTKNQVSLSCAVKGFYPSDIAVEWESNGQPENNYKTTPPVLDSDGSFFLVSKLTVDKSRWQQGNVFSCSVMHEALHNHYTQKSLSLSPGK
MT204 scFv mask - non-cleavable linker - IL2v - Fc knob chain, PG LALA (C2184220946-K): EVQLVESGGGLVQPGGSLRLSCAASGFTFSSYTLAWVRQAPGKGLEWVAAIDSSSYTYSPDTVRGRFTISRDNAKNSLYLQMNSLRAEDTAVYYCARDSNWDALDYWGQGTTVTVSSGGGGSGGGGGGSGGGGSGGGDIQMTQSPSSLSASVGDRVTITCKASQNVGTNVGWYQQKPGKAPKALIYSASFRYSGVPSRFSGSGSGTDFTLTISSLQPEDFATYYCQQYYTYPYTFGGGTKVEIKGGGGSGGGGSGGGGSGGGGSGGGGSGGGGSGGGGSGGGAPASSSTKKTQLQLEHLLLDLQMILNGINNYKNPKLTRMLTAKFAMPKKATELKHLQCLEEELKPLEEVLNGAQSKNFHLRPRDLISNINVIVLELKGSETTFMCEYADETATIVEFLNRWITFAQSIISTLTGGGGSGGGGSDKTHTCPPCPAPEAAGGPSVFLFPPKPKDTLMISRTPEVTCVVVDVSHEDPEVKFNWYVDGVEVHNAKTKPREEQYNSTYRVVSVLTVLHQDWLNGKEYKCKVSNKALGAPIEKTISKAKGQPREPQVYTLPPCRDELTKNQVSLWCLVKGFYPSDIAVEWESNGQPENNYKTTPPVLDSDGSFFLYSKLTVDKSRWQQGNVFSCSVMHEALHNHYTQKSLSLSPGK
notes: also called human TA PD1-IL2v, MT204, non cleavable, N-term; P1AG0929

EC50 (read off the curve) [1]: ~2 nM
EC50 (read off the curve) [2]: ~0.7 nM
EC50 (read off the curve) [3]: ~0.8 nM
EC50 (read off the curve) [4]: ~2 nM
B3: human PD1-IL2v, unmasked, in line (antibody, human IgG1, kappa, L234A L235A)
light: B1 light
heavy 1: B1 heavy 1
heavy 2: not shown
notes: Bivalent human PD1-targeted human IgG PG LALA with IL2v fused to the C-terminus of the Fc knob chain (non-masked control); also called P1AA7146; P1AA7146-006

EC50 (read off the curve) [2]: ~0.8 nM
EC50 (read off the curve) [3]: ~1 nM
B4: human TA PD1-IL2v, MT204, 2xPQARK, knob/hole (antibody, human IgG1, kappa, L234A L235A)
light: B1 light
heavy 1: EVQLLESGGGLVQPGGSLRLSCAASGFSFSSYTMSWVRQAPGKGLEWVATISGGGRDIYYPDSVKGRFTISRDNSKNTLYLQMNSLRAEDTAVYYCVLLTGRVYFALDSWGQGTLVTVSSASTKGPSVFPLAPSSKSTSGGTAALGCLVKDYFPEPVTVSWNSGALTSGVHTFPAVLQSSGLYSLSSVVTVPSSSLGTQTYICNVNHKPSNTKVDKKVEPKSCDKTHTCPPCPAPEAAGGPSVFLFPPKPKDTLMISRTPEVTCVVVDVSHEDPEVKFNWYVDGVEVHNAKTKPREEQYNSTYRVVSVLTVLHQDWLNGKEYKCKVSNKALGAPIEKTISKAKGQPREPQVCTLPPSRDELTKNQVSLSCAVKGFYPSDIAVEWESNGQPENNYKTTPPVLDSDGSFFLVSKLTVDKSRWQQGNVFSCSVMHEALHNHYTQKSLSLSPGGGGGSGGGGSPQARKGGGGSGGGGSGGGGSGGGGSGGGEVQLVESGGGLVQPGGSLRLSCAASGFTFSSYTLAWVRQAPGKGLEWVAAIDSSSYTYSPDTVRGRFTISRDNAKNSLYLQMNSLRAEDTAVYYCARDSNWDALDYWGQGTTVTVSSGGGGSGGPQARKGGGGSGGGDIQMTQSPSSLSASVGDRVTITCKASQNVGTNVGWYQQKPGKAPKALIYSASFRYSGVPSRFSGSGSGTDFTLTISSLQPEDFATYYCQQYYTYPYTFGGGTKVEIK
heavy 2: not shown
notes: Bivalent human PD1-targeted human IgG PG LALA; also called P1AG9607; P1AG9607-006

EC50 (read off the curve) [1]: ~2 nM
EC50 (read off the curve) [2]: ~0.8 nM
EC50 (read off the curve) [3]: ~1 nM
EC50 (read off the curve) [4]: ~2 nM
B5: human TA PD1-IL2v, MT204, non cleavable, in line (antibody, human IgG1, kappa, L234A L235A)
light: B1 light
heavy 1: B1 heavy 1
heavy 2: not shown
notes: Bivalent human PD1-targeted human IgG PG LALA with masked IL2v in-line on the Fc knob chain and no matriptase sites (non-cleavable control); also called P1AG5740; P1AG5740-004

— patent US20240376171A1 (Hoffmann-La Roche, published 2024)
